From patent US20230414780A1 (VECT HORUS, published 2023)
Positions count from the first letter of the chain named.

B1: B8^V22 (VHH)
VHH: EVQLVESGGGVVQPGGSLRLSCAASGEIFSINQMRWYRQAPGKQREWVAGFTRDGSTNYPDSAKGRFTISRDNAKNTVYLQIDSLKPEDTAVYYCYMLDTWGQGTQVTVSS
B2: B8^V35 (VHH)
VHH: B1 VHH with F29R, Q33F, T57L, Q103K
B3: B8^V37 (VHH)
VHH: B1 VHH with Q33F, R71E, D99R
B4: B8^V38 (VHH)
VHH: B1 VHH with F29R, Q33F, D54T
B5: B8^V39 (VHH)
VHH: B1 VHH with S30K, Q33F
B6: B8^V40 (VHH)
VHH: B1 VHH with F29K, Q33F, A49S
B7: VHH C (B6) (VHH)
VHH: EVQLVESGGGLVQPGGSLRLSCTASGGPIEQYPMGWFRRAPGKERELVASISRSGDGTYYAISSVKGRFTISRDNAENTVFLQMNSLKPDDTAVYYCGAGINPTKIWGQGTQVTVSS
B8: E4 (VHH)
VHH: EVQLVESGGGLVQAGDSLRLSCTASGLPLSNYPMGWFRRAPGKERELIASISRTGDGTYYADSSVKGRFTISRDNAENTVSLQMNSLKPEDTAVYYCGAGINPTKYWGQGTQVTVSS
B9: B7 (VHH)
VHH: QVQLVQSGGGLVQAGGSLTLSCTASGRPLSDYPMGWFRRAPEKERELVASISRTGDGTYYADGMRGRFTISRDNSENTVSLQMNNLKPEDTAVYYCGAGINPTKYWGQGTQVTVSS
B10: C3 (VHH)
VHH: EVQLVQSGGGLVQAGGSLRLSCAASGRDFSDTSMAWHRQAPGKERLWVAGIRSGSTSTSYADSVKGRFTISRDDAKNTVYLQMDNLTPEDTAVYFCYSKGYWGQGTQVTVSS
B11: F2a (VHH)
VHH: EVQLVESGGGLVQPGESLRLSCTASESISIYGVGWYRQAPGEQRVLVAHLKRNGLTEYKDSVKGRFTISRDNARNTIYLEMKNLKPEDTAIYYCNTALGSVLPWGRGTQVTVSS
B12: C10a (VHH)
VHH: EVQLVESGGGLVQAGDSLRLSCAASGFASHLYAIGWFRQAPGKEREKVSCISSNDGSTYYADSVKGRFTISRDTVKDMVYLQMNSLKPEDTAVYYCATDLTVHCFMAEYDWWGQGTQVTVSS
B13: H7 (VHH)
VHH: EVQLVESGGGLVQAGGSLRLSCTASGRPISDYPMGWFRRAPGKDRELVASISRTGDGTYYANSMKERFTISRDNAQNTVSLQISSLKPEDTAVYYCGAGINPTRYWGQGTQVTVSS
B14: C12b (VHH)
VHH: QVQLVQSGGGLVQPGGSLRLSCAASGFTFSAYAMSWVRQAPGKGRELVASISRTGDGTYYADGMKGRFTISRDNAENTVSLQINSLKPEDTAIYYCGAGINPTKYWGQGTQVTVSS
B15: C5^neg (control) (VHH)
VHH: EVQLVESGGGVVQPGGSLKLSCVASGTDFSINFIRWYRQAPGKQREFVAGFTATGNTNYADSMKGRFTISRDNTKNAVYLQIDSLKPEDTAVYYCAMADKWGQGTQVTVSS
notes: negative control of C5 with 2 alanines in CDR3
B16: B8^V24 (VHH)
VHH: B1 VHH with Q33F, R35E
B17: B6^V1 (VHH)
VHH: B7 VHH with E46N
B18: B6^V2 (VHH)
VHH: B7 VHH with I51F
B19: B6^V3 (VHH)
VHH: B7 VHH with I51S
B20: B6^V4 (VHH)
VHH: B7 VHH with L47S
B21: E2 (VHH)
VHH: QVQLVQSGGGLVQAGGSLRLSCAASGSIFSDITLAWHRQIPGKEREWVAGISRSGSPSYRDSVKGRFTISRDNAKNTVFLQMNSLEPEDTGVYYCYSRGYWGQGTQVTVSS

These binders were tested against T1, human TfR ectodomain fused to a mouse IgG1 Fc fragment (human, UniProt P02786 89-760) (assay: SPR, kinetic).
T1 construct: extracellular domain; ectodomain fused to the N-terminal end of the Fc, made in-house; not shown: mouse IgG1 Fc fragment
T1 sequence (P02786 89-760): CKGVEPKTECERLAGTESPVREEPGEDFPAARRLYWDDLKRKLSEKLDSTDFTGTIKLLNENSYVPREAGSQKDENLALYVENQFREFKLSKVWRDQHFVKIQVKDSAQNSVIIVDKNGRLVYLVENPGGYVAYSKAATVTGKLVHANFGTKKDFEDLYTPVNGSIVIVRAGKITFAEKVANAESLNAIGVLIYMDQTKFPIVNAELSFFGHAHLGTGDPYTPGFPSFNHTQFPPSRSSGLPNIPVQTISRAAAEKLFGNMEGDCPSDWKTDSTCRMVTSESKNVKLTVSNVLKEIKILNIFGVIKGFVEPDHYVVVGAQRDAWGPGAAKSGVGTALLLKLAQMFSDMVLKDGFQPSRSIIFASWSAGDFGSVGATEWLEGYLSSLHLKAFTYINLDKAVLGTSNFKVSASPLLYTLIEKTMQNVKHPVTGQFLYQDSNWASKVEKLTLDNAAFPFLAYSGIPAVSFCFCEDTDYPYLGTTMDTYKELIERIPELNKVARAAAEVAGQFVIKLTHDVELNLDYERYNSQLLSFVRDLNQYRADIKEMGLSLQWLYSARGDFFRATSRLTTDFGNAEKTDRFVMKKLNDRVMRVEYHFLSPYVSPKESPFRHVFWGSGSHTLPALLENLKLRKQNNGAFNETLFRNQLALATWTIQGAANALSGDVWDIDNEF
Description: (§1) Binding properties of some VHHs were also evaluated using Surface Plasmon Resonance (SPR) experiments. The human, mouse and rhesus monkey TfR (having respectively GeneBank number NM_003234.2, NM_011638, NC_041755.1) ectodomains were fused to the N-terminal end of a mouse IgG1 Fc fragment and the recombinant proteins were produced and purified in-house. Interaction of VHHs with the receptors was tested using a Biacore T200 (GE Healthcare). Receptors were immobilized on an HC 1500M or a CM5 sensor chip (Xantec) either directly or on an anti-mouse IgG previously immobilized. VHHs were injected over flowcell by using the single-cycle kinetic or the multiple-cycle kinetic methods.

Row | Binder | Kd [µM] | kon [M⁻¹ s⁻¹] | koff [s⁻¹]
1 | B1 | 0.475 | 698000 | –
2 | B2 | 0.0206 | 698000 | 0.0143
3 | B3 | 0.0705 | 699000 | 0.0493
4 | B4 | 0.0322 | 596000 | 0.0192
5 | B5 | 0.0391 | 448000 | 0.0175
6 | B6 | 0.0421 | 672000 | 0.0283
7 | B7 | 0.000659 | 1.73e+06 | 0.00121
8 | B8 | 0.00125 | 1.51e+06 | 0.00189
9 | B9 | 0.000652 | 1.16e+06 | 0.000758
10 | B10 | 0.000559 | 5.9e+06 | 0.00249
11 | B11 | 0.000545 | 1.39e+06 | 0.000752
12 | B12 | 0.0446 | 188000 | 0.00726
13 | B13 | 0.0013 | 1.13e+06 | 0.00147

Each binder was assayed against T2, rhesus monkey TfR ectodomain fused to a mouse IgG1 Fc fragment (rhesus monkey, UniProt I0FKY7 89-760) (assay: SPR, kinetic).
T2 construct: extracellular domain; not shown: mouse IgG1 Fc fragment
Description: as §1

Row | Binder | Kd [µM] | koff [s⁻¹] | kon [M⁻¹ s⁻¹]
14 | B2 | 0.0337 | 0.0303 | 898000
15 | B3 | 0.148 | 0.103 | 700000
16 | B4 | 0.0463 | 0.0255 | 549000
17 | B5 | 0.0905 | 0.0327 | 362000
18 | B6 | 0.0348 | 0.02 | 575000
19 | B12 | 0.0246 | 0.0178 | 903000

Each binder was assayed against T1, human TfR ectodomain fused to a mouse … (assay: SPR, at equilibrium).
Description: as §1

Row | Binder | Kd [µM]
20 | B1 | 0.48
21 | B2 | 0.0239
22 | B3 | 0.0755
23 | B4 | 0.0358
24 | B5 | 0.0403
25 | B6 | 0.0425
26 | B14 | 2.44
27 | B12 | 0.0868

Each binder was assayed against T2, rhesus monkey TfR ectodomain fused to a … (assay: SPR, at equilibrium).
Description: as §1

Row | Binder | Kd [µM]
28 | B2 | 0.0344
29 | B3 | 0.175
30 | B4 | 0.0554
31 | B5 | 0.0933
32 | B6 | 0.0398
33 | B12 | 0.0381

These binders were tested against T3, mouse transferrin receptor (mTfR) fused to EGFP, on CHO cells (mouse, UniProt Q62351 1-763) (assay: flow cytometry, CHO cells).
T3 construct: whole, on cells; also called mouse TfR; CHO-mTfR-EGFP; not shown: EGFP
T3 sequence (Q62351 whole entry, the tested form may be a part): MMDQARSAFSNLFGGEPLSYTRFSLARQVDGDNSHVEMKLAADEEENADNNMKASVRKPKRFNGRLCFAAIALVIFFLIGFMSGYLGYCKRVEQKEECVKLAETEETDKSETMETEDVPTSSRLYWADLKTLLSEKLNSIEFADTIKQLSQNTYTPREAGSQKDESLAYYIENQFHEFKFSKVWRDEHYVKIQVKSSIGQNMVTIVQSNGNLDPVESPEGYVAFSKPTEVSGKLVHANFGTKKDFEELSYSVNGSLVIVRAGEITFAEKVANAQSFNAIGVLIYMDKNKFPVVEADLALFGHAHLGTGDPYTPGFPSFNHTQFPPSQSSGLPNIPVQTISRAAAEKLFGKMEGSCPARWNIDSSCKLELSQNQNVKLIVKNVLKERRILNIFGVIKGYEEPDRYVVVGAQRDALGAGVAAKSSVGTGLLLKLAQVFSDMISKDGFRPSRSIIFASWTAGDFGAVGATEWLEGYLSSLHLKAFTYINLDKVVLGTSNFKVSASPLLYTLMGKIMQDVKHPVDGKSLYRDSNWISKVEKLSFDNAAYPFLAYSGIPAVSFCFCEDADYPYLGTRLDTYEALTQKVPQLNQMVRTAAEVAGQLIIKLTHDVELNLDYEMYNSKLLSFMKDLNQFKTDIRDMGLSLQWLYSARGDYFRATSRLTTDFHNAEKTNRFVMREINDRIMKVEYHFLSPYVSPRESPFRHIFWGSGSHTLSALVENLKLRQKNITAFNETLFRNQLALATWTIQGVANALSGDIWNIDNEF
Description: The binding properties of VHHs with affinity for the TfR from different species (i.e., human (h), mouse (m) and rhesus monkey (rh)) were tested using flow cytometry, and apparent affinities (Kd app) were determined. All experiments were performed in 96 well plates using 2×10⁵ cells/well, at 4° C. with shaking. CHO cell lines expressing the hTfR, mTfR or rhTfR fused to EGFP were saturated with PBS/BSA 2% solution during 30 min to avoid nonspecific binding, followed by incubation with purified VHHs at increasing concentrations for 1 hr. After one wash in PBS/BSA 2%, cells were incubated for 1 hr with an anti-6His tag antibody (mouse), washed twice with PBS/BSA 2%, and incubated for 1 hr with an Alexa647-conjugated anti-mouse secondary antibody. After two last washes in PBS/BSA 2%, cells were fixed by incubation for 15 min with PBS/PFA 2%, washed once with PBS and finally resuspended in PBS. Fluorescence levels were assessed using an Attune NxT flow cytometer (Thermo Fisher Scientific). Experimental data were fitted with GraphPad Prism® software using a nonlinear fit to determine the apparent Kd constants. […] Table 5 hereafter summarizes apparent Kd obtained for the tested VHHs.

Row | Binder | binding result
34 | B15 | no binding
35 | B1 | no binding
36 | B16 | no binding
37 | B7 | no binding
38 | B17 | no binding
39 | B18 | no binding
40 | B19 | no binding
41 | B20 | no binding
42 | B8 | no binding
43 | B9 | no binding
44 | B14 | no binding
45 | B21 | no binding
46 | B10 | no binding
47 | B11 | no binding
48 | B12 | no binding
49 | B13 | no binding

What follows are binders tested against T4, human transferrin receptor (hTfR) fused to EGFP, on CHO cells (human, UniProt P02786 1-760) (assay: apparent Kd, flow cytometry, CHO cells).
T4 construct: whole, on cells; also called human TfR; CHO-hTfR-EGFP; not shown: EGFP from pEGFP-C1 vector, fused to the N-terminal (intracellular) end of hTfR
T4 sequence (P02786 whole entry, the tested form may be a part): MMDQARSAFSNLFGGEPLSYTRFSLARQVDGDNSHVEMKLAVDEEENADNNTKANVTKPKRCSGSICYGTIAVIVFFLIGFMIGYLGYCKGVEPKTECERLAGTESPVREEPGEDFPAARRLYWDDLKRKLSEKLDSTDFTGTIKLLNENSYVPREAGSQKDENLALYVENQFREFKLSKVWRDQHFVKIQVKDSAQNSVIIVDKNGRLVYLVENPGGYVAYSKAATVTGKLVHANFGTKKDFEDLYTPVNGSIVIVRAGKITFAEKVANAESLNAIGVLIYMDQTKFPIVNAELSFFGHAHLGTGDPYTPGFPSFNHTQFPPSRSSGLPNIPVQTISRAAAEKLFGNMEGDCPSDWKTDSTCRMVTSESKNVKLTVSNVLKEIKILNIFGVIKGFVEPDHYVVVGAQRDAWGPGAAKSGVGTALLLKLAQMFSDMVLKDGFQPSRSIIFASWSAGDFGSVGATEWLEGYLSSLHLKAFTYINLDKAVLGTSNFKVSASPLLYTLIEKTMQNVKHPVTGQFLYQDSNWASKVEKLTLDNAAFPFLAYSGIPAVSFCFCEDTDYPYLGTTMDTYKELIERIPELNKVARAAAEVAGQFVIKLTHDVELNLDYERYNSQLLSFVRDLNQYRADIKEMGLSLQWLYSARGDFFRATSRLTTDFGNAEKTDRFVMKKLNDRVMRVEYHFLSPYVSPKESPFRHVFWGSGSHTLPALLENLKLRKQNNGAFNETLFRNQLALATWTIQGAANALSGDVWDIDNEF
How it was run: (§2)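 CHO cells expressing TfR-EGFP fusions, blocked in PBS/BSA 2%, then incubated with increasing VHH concentrations for 1 hr at 4° C. Bound VHH detected via anti-6His antibody and Alexa647 secondary, cells PFA-fixed, read by flow cytometry. Apparent Kd from nonlinear fit.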

Row | Binder | Kd [µM]
50 | B1 | 0.321
51 | B2 | 0.0071
52 | B3 | 0.097
53 | B4 | 0.023
54 | B5 | 0.016
55 | B6 | 0.042
56 | B16 | 1.01
57 | B7 | 0.0021
58 | B17 | 0.0023
59 | B18 | 0.643
60 | B19 | 0.0026
61 | B20 | 0.0059
62 | B8 | 0.0031
63 | B9 | 0.0019
64 | B14 | 0.63
65 | B21 | 0.0025
66 | B11 | 0.0029
67 | B12 | 0.0041

Each binder was assayed against T3, mouse transferrin receptor (mTfR) fused … (assay: apparent Kd, flow cytometry, CHO cells).
How it was run: as §2

Row | Binder | Kd [µM]
68 | B2 | 0.513
69 | B3 | 0.582
70 | B4 | 1.78
71 | B5 | 1.29
72 | B6 | 1.58

The binders below were run against T5, rhesus monkey transferrin receptor (rhTfR) fused to EGFP, on CHO cells (rhesus monkey) (assay: apparent Kd, flow cytometry, CHO cells).
T5 construct: whole, on cells; also called rhesus monkey TfR
How it was run: as §2

Row | Binder | Kd [µM]
73 | B1 | 0.971
74 | B2 | 0.023
75 | B3 | 0.334
76 | B4 | 0.123
77 | B5 | 0.2
78 | B6 | 0.069
79 | B10 | 4.23
80 | B12 | 0.0032
